We go through six molecules from US20260083853A1, “CD70 ANTIBODY DRUG CONJUGATES AND METHODS OF USING THE SAME” (Genmab A/S, priority 2022, published 2026).

Numbering of substitutions follows the chain as printed.

The test system of series [1] is human CD70-expressing tumor cells (Raji, Caki-1, 786-O). Briefly: In vitro cytotoxicity (CTG, 96 h), all cell lines. The series is classed as cell-based. How it is done:
Raji (ATCC, CCL-86), Caki-1 (Cobioer, CBP60448), and 786-O (BNCC, BNCC338472) were cultured in CO2 thermostatic incubator at 37° C. with 5% CO2 in standard conditions. Cells were sub-cultured every 1-2 days, digested with 0.25% trypsin and passaged with a suitable density. When the cells were in the logarithmic growth phase and the amount meeting the assay's demand, cells were collected and plated onto 96-well solid white flat bottom plates for assay. One day later test articles (2E7 antibody or 2E7-LD038 conjugate ranging from 2 μM to 0.1 nM, or exatecan ranging from 20 μM to 0.03 nM) were added to the cells. Plates were then incubated at 37° C. for 96 h. Cell Titer Glo (CTG) (40 μl per well) was subsequently added to the plates. Luciferase reading was collected 5 min after and analyzed by Microplate readers. All readings were normalized as percentage of viable cells in the untreated control wells and the IC50 values were calculated by Prism software.

Series [2] has as its target T1, Human CD70 on CD70-expressing human tumor cell lines (Raji, 786-O, Caki-1) (human, UniProt P32970 1-193).
T1 construct: whole, on cells; Endogenous CD70 on the cells; also called human CD70-expressing cell lines; CD70-positive cell lines 786-O, Raji and Caki-1
T1 sequence (looked up): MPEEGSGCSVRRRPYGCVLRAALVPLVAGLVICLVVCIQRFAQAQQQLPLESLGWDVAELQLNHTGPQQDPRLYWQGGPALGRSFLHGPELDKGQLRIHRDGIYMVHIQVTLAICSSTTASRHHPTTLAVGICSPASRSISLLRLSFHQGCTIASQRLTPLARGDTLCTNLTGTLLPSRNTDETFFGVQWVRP
In words: flow cytometry blocking assay on 786-O cells; blocked ligand: biotinylated human CD27 at 30 ug/ml, detection with PE-conjugated streptavidin. How it is done: (§1) CD70-positive cell lines 786-O, Raji and Caki-1 were mixed with varying concentrations from 333.5 nM down to 6 nM of 2E7-LD038 conjugate, or 2E7 antibody, or negative binding control (B12), and incubated at 4° C. for 30 minutes. Cells were washed twice with PBS and then incubated with 30 µg/ml biotinylated human CD27 (the receptor for CD70) at 4° C. Staining was done using PE-conjugated streptavidin for 30 minutes and fluorescence was measured using flow cytometer.
In general terms: Flow cytometry measures light scatter and fluorescence of single cells or particles in a stream.

The target in series [3] is T2, Recombinant cynomolgus monkey CD70 extra-cellular domain (ECD) linked to His tag (cynomolgus monkey, UniProt A0A2K5WTU9 39-190).
T2 construct: extracellular domain; Purchased or made in house; also called Cyno CD70; not shown: His tag
T2 sequence: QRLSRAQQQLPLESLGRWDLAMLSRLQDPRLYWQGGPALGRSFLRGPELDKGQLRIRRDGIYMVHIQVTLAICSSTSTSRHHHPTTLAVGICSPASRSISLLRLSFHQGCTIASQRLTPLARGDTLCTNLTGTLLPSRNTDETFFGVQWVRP
Briefly: BLI (Octet RED), antibody on anti-human IgG Fc tips, CD70 ECD-His in solution 200 to 3.13 nM, 1:1 global fit. The method, then: (§2) Recombinant proteins consisting of the CD70 extra-cellular domain (ECD) linked to His tag were either purchased (from KACTUS or ACRO biosystems) or synthesized in house. 2E7 antibody or 2E7-LD038 conjugate (20 nM) was immobilized on anti-human IgG Fc biosensor tips (Fortebio). Binding assays using varying concentration from 200 nM down to 3.13 nM of recombinant protein in solution were performed using Octet RED (Fortebio). Association time was set at 180 seconds and dissociation time was set at 300 seconds. Binding affinity was calculated using ForteBio Data Acquisition 6.3 software (ForteBio). Affinity was derived by fitting the kinetic data to a 1:1 Langmuir binding model utilizing global fitting algorithms.
(In general: Biolayer interferometry detects binding as a change in optical thickness at a sensor tip.)

The target in series [4] is T3, Recombinant human CD70 extra-cellular domain (ECD) linked to His tag (human, UniProt P32970 39-193).
T3 construct: extracellular domain; Purchased (KACTUS or ACRO biosystems) or made in house; also called human CD70 protein; not shown: His tag
T3 sequence (looked up): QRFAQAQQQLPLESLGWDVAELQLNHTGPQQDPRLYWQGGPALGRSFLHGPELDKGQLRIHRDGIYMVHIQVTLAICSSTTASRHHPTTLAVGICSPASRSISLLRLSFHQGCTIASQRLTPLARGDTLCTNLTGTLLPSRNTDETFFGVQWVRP
Described as above. The method, then:
as §2

In series [5] the target is T4, Recombinant mouse CD70 extra-cellular domain (ECD) linked to His tag (mouse, UniProt O55237 45-195).
T4 construct: extracellular domain; Purchased or made in house; not shown: His tag
T4 sequence (looked up): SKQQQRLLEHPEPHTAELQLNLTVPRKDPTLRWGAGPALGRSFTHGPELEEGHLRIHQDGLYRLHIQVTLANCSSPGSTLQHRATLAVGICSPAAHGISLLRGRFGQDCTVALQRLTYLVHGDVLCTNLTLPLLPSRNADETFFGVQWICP
Briefly: BLI (Octet RED), antibody on anti-human IgG Fc tips, CD70 ECD-His in solution 200 to 3.13 nM. The method, then: as §2

The target in series [6] is T1, Human CD70 on CD70-expressing human …. Briefly: flow cytometry on Raji cells, detection with PE-conjugated anti-human Fc, MFI(PE). The method, then:
(§3) The binding activity of 2E7 antibody or 2E7-LD038 ADC was evaluated by Flow cytometric analysis (Beckman, Cytoflex) with target-expressing cell lines, Raji, 786-O, Caki-1, and a cell line with negligible CD70 expression, MCF-7. 3×10⁵ cells were seeded per well at 96-well v-bottomed plate and incubated with 100 μl of 2E7 or 2E7-LD038 in serial dilutions. After 30 minutes of incubation at 4° C., cells were washed twice with PBS, stained with 100 μl of 1:200 diluted PE-conjugated anti human Fc in FACS buffer (1×PBS containing 1% BSA) and then incubated at 4° C. for 30 minutes. After that the cells were washed 2 times with PBS and analyzed by Flow cytometric analysis.

Series [7] shares this target. In words: flow cytometry on Caki-1 cells, detection with PE-conjugated anti-human Fc, MFI(PE). The method, then:
as §3

Series [8] has the same target. Briefly: flow cytometry blocking assay on Caki-1 cells; blocked ligand: biotinylated human CD27 at 30 ug/ml, detection with PE-conjugated streptavidin. The method, then:
as §1

The target is the same in series [9]. Briefly: flow cytometry on 786-O cells, detection with PE-conjugated anti-human Fc, MFI(PE). How it is done: as §3
Series [10] shares this target. Briefly: flow cytometry blocking assay on Raji cells; blocked ligand: biotinylated human CD27 at 30 ug/ml, detection with PE-conjugated streptavidin. The method, then: as §1
The nature of series [11]: Hydrophobic interaction chromatography (HIC) of anti-CD70 antibodies. As to conditions: for Retention time (hydrophobicity): TSK gel Butyl-NPR. It is filed as physicochemical. How it is done: Antibodies were purified from cleared cell culture supernatants using Protein A chromatography (Protein A resin slurry, 4.5 mL, Bogen, Cat #18-0010-02). Briefly, supernatants were prepared for affinity chromatography and loaded onto the columns and allowed to flow completely through the resin. The columns were washed with binding buffer containing 0.15M NaCl and 0.2M PB, PH7.0. Antibody was eluted with elution buffer containing 0.15M NaCl, 0.1M Glycine and 0.2M PB, PH 3.0. Fractions were collected and neutralized by the addition of 1/10 volume of 1M Tris, PH9.0. The fractions were dialyzed for 2 hours against 1×PBS. Purified antibody was quantified by absorbance at A280. Samples from each step of the protein A chromatography were applied onto 12% SDS-PAGE gels for reduced and non-reduced electrophoresis. The hydrophobicity was assessed with hydrophobic interaction chromatography (HIC) on a TSK gel Butyl-NPR, 4.6×100 mm with Butyl-NPR (Tosoh corporation) using a Waters HPLC 2695 system.

Series [12] addresses T2, Recombinant cynomolgus monkey CD70 …. In words: BLI (Octet RED), conjugate on anti-human IgG Fc tips, CD70 ECD-His in solution 200 to 3.13 nM, 1:1 global fit. How it is done: as §2
Series [13] deals with T3, Recombinant human CD70 extra-cellular …. Described as above. The method, then:
as §2

In series [14] the target is T4, Recombinant mouse CD70 extra-cellular …. In words: BLI (Octet RED), conjugate on anti-human IgG Fc tips, CD70 ECD-His in solution 200 to 3.13 nM. The method, then: as §2

As to `CC[C@@]1(O)C(=O)OCc2c1cc1n(c2=O)Cc2c-1nc1cc(F)c(C)c3c1c2[C@@H](N)CC3` [Exatecan, exatecan], the cytotoxicity result in series [1] was “cytotoxic on all cell lines”.

B1: 2E7 antibody (antibody, human IgG1, kappa, V domains shown)
VH: QVQLQESGPGLVKPSETLSLTCTVSGGSVSSDYYYWSWIRQPPGKGLEWLGYIYYSGSTNYNPSLKSRVTISVDTSKNQFSLKLRSVTTADTAVYYCARGDGDFLGVCFDYWGQGTLVTVSS
VL: EIVLTQSPATLSLSPGERATLSCRASQSVSSYLAWYQQKPGQAPRLLIFDASNRATGIPARFSGSGSGTDFTLTISSLEPEDFAVYYCQQRSNWPLTFGGGTKVEIKR
notes: Made in ExpiCHO-S cells and purified on Protein A; also called Ab 2E7; parental mAb (2E7)
Regarding B1, the half-maximal inhibitory concentration (IC50) (commonly the concentration that gives 50% inhibition) in series [2] worked out at 6.24 nM; in series [8], 7.04 nM; in [10], 8.78 nM. Moreover, the equilibrium dissociation constant (Kd) (commonly the constant that tells how readily two partners part at equilibrium) was 0.39 nM in [3] and 0.807 nM in series [4]. Besides, the values for the koff in series [3] and in series [4] were 0.000241 s⁻¹ and 0.000254 s⁻¹, respectively. The figures for the kon in series [3] and in series [4] were 618000 M⁻¹ s⁻¹ and 314000 M⁻¹ s⁻¹, respectively. For the same molecule, the binding result in series [5] is reported as “no binding (tested: 200 nM)”. In addition, the EC50 – broadly, the concentration at which the effect is half-maximal – in series [6] was 19.9 nM; in [7], 1.59 nM; in series [9] it was 2.81 nM.

B2: 2A4: anti-CD70 clone with "at least two more amino acid substitutions in HCDR3/LCDR3" "compared with the parent antibody 69A7" (antibody, V domains shown)
VH: B1 VH with F104Y, L105G, V107N, C108V, D110P
VL: EIVLTQSPATLSLSPGERATLSCRASQSVSSYLAWYQQKPGQAPRLLIFDASNRATGIPARFSGSGSGTDFTLTISSLEPEDFAVYYCQQRSNWPLTFGGGTKVEIK
Turning to B2, the “Retention time (hydrophobicity)” value in [11] was 9.06 min.

B3: 2E7-LD038 conjugate (antibody, human IgG1, kappa, DAR 8, V domains shown)
VH: B1 VH
VL: B1 VL
modifications: Drug-Linker LD038 (PB038; PEG unit, cleavable linker, exatecan) attached to cysteines after TCEP reduction; DAR8 for the whole antibody; residues not stated
notes: The constant regions are tied to 2E7 by claim 120; also called PA038; ADC PA038
In the case of B3, the figures for the IC50 in series [2], in [8] and in series [10] were 7.35 nM, 8.03 nM and 11.6 nM, respectively. Besides, the Kd in series [12] stood at 0.144 nM; in series [13], 0.12 nM. Also, the koff – broadly, a measure of how fast the partners let go of each other – in series [12] amounted to 9.4e-05 s⁻¹; in series [13], 5.45e-05 s⁻¹. Also, the kon (as a rule, the rate constant with which the complex forms) was found to be 652000 M⁻¹ s⁻¹ in series [12] and 456000 M⁻¹ s⁻¹ in [13]. Moreover, in [14], the binding result is recorded as “no binding (tested: 200 nM)”. The half-maximal effective concentration (EC50) in [6] worked out at 26.4 nM; in series [7], 1.45 nM; in [9], 2.16 nM.

B4: 2D2: anti-CD70 clone with "at least two more amino acid substitutions in HCDR3/LCDR3" "compared with the parent antibody 69A7" (antibody, V domains shown)
VH: B1 VH with F104Y, L105G, V107N
VL: B2 VL with S92L, N93K, W94F
Regarding B4, in series [11], the “Retention time (hydrophobicity)” value is reported as 8.81 min.

B5: 1H8: anti-CD70 clone with "at least two more amino acid substitutions in HCDR3/LCDR3" "compared with the parent antibody 69A7" (antibody, V domains shown)
VH: B1 VH with L105M
VL: B2 VL
Turning to B5, in [11], the “hydrophobicity compared with parent antibody 69A7” value is recorded as “slightly more hydrophobic than the parent antibody” and the “Retention time (hydrophobicity)” value is 10.24 min.
